The results in this text go back to patent publication US20170327545A1.

Assay [1] concerns the target human polyclonal IgG (Gammanorm) (human). Nature of the assay: SPR (Biacore), retained IgG binding capacity after 96 NaOH cycles, ratio to reference Protein L (itself).
For assay [2] the target is unchanged. Nature of the assay: SPR (Biacore), retained IgG binding capacity after 100 NaOH cycles, ratio to reference Protein L (itself).
Assay [3] shares this target. Nature of the assay: SPR (Biacore), ligand amine-coupled to chip, 1 mg/ml human polyclonal IgG flowed; IgG binding signal left after 96 cycles of 10 min 100 mM NaOH.
Assay [4] shares this target. Nature of the assay: SPR (Biacore), ligand amine-coupled to chip, 1 mg/ml human polyclonal IgG flowed; IgG binding signal left after 100 cycles of 10 min 100 mM NaOH.
Assay [5] shares this target. Nature of the assay: SPR (Biacore), retained IgG binding capacity after 96 NaOH cycles, ratio to reference Domain 3.
The target in assay [6] is Purified Dab prepared from heat-treated E. coli supernatant. Nature of the assay: dynamic binding capacity at 10% breakthrough, ligand multipoint-coupled to agarose beads (9.5 mg/ml), 1 mg/ml Dab, residence time 4 min.
Assay [7] concerns the target Purified Fab prepared from a papain-digested IgG mAb. Nature of the assay: dynamic binding capacity at 10% breakthrough, ligand multipoint-coupled to agarose beads (9.5 mg/ml), 1 mg/ml Fab, residence time 4 min.
Assay [8] concerns the target Purified Dab prepared from heat-treated E. coli supernatant. Nature of the assay: dynamic binding capacity at 10% breakthrough, ligand multipoint-coupled to agarose beads (8.8 mg/ml), 1 mg/ml Dab, residence time 4 min.
Assay [9] has as its target Purified Fab prepared from a papain-digested IgG mAb. Nature of the assay: dynamic binding capacity at 10% breakthrough, ligand multipoint-coupled to agarose beads (8.8 mg/ml), 1 mg/ml Fab, residence time 4 min.
Assay [10] addresses Purified Dab prepared from heat-treated E. coli supernatant. Nature of the assay: dynamic binding capacity at 10% breakthrough, ligand multipoint-coupled to agarose beads (11.0 mg/ml), 1 mg/ml Dab, residence time 4 min.
Assay [11] addresses Purified Fab prepared from a papain-digested IgG mAb. Nature of the assay: dynamic binding capacity at 10% breakthrough, ligand multipoint-coupled to agarose beads (11.0 mg/ml), 1 mg/ml Fab, residence time 4 min.
In assay [12] the target is human polyclonal IgG (Gammanorm) (human). Nature of the assay: SPR (Biacore), retained IgG binding capacity after 96 NaOH cycles, ratio to reference Domain 3 (itself).
Assay [13] shares this target. Nature of the assay: SPR (Biacore), retained IgG binding capacity after 96 NaOH cycles, ratio to reference Domain 3 (itself, second run).
The target is the same in assay [14]. Nature of the assay: SPR (Biacore), ligand amine-coupled to chip, 1 mg/ml human polyclonal IgG flowed; IgG binding signal left after 96 cycles of 10 min 100 mM NaOH (second run, reference for the Q19 mutants).

Positions count from the first letter of the chain named. In names and notes the source's numbering stands.

B1: Protein L (four kappa light chain-binding domains, with additional AIHNRA sequence at the N-terminus) (protein)
chain: AIHNRAKEETPETPETDSEEEVTIKANLIFANGSTQTAEFKGTFEKATSEAYAYADTLKKDNGEYTVDVADKGYTLNIKFAGKEKTPEEPKEEVTIKANLIYADGKTQTAEFKGTFEEATAEAYRYADALKKDNGEYTVDVADKGYTLNIKFAGKEKTPEEPKEEVTIKANLIYADGKTQTAEFKGTFEEATAEAYRYADLLAKENGKYTVDVADKGYTLNIKFAGKEKTPEEPKEEVTIKANLIYADGKTQTAEFKGTFAEATAEAYRYADLLAKENGKYTADLEDGGYTINIRFAGKKVDEKPEE
On to B1, for which the Sample/ref. ratio in assay [1] and in assay [2] was 1 throughout. Moreover, the Retained capacity after 96 cycles (%) in [3] was 28%. Moreover, the Retained capacity after 100 cycles (%) in assay [4] came to 23%.

B2: Domain 1 (D1) of Peptostreptococcus magnus Protein L (protein)
chain: AQVSEEEVTIKANLIFANGSTQTAEFKGTFEKATSEAYAYADTLKKDNGEYTVDVADKGYTLNIKFAGKEKTPEEC
As to B2, the Sample/ref. ratio in assay [5] was found to be 0.42. In assay [3], this molecule came in with a Retained capacity after 96 cycles (%) of 13%.

B3: Domain 4 (D4) of Peptostreptococcus magnus Protein L (protein)
chain: AQVPKEEVTIKANLIYADGKTQTAEFKGTFAEATAEAYRYADLLAKENGKYTADLEDGGYTINIRFAGKKVDEKPEEC
In the case of B3, in [5], the Sample/ref. ratio came to 0.84. Also, in assay [3], the Retained capacity after 96 cycles (%) came to 26%.

B4: D3(N10Q, N45A, N60Q)2 (designed binder)
chain: PKEEVTIKAQLIYADGKTQTAEFKGTFEEATAEAYRYADLLAKEAGKYTVDVADKGYTLQIKFAGKEKTPEEPKEEVTIKAQLIYADGKTQTAEFKGTFEEATAEAYRYADLLAKEAGKYTVDVADKGYTLQIKFAGKEKTPEE
The molecule B4 showed a QB10 Dab in assay [6] of 15.4 mg/mL. The QB10 Fab in assay [7] is 19.3 mg/mL.

B5: D3(N10Q, N45A, N60Q)4 (designed binder)
chain: PKEEVTIKAQLIYADGKTQTAEFKGTFEEATAEAYRYADLLAKEAGKYTVDVADKGYTLQIKFAGKEKTPEEPKEEVTIKAQLIYADGKTQTAEFKGTFEEATAEAYRYADLLAKEAGKYTVDVADKGYTLQIKFAGKEKTPEEPKEEVTIKAQLIYADGKTQTAEFKGTFEEATAEAYRYADLLAKEAGKYTVDVADKGYTLQIKFAGKEKTPEEPKEEVTIKAQLIYADGKTQTAEFKGTFEEATAEAYRYADLLAKEAGKYTVDVADKGYTLQIKFAGKEKTPEE
Turning to B5, in assay [8], the QB10 Dab came to 15.9 mg/mL. For the same molecule, the QB10 Fab in assay [9] is 19.3 mg/mL.

B6: D3(N10Q, N45A, N60Q)6 (designed binder)
chain: PKEEVTIKAQLIYADGKTQTAEFKGTFEEATAEAYRYADLLAKEAGKYTVDVADKGYTLQIKFAGKEKTPEEPKEEVTIKAQLIYADGKTQTAEFKGTFEEATAEAYRYADLLAKEAGKYTVDVADKGYTLQIKFAGKEKTPEEPKEEVTIKAQLIYADGKTQTAEFKGTFEEATAEAYRYADLLAKEAGKYTVDVADKGYTLQIKFAGKEKTPEEPKEEVTIKAQLIYADGKTQTAEFKGTFEEATAEAYRYADLLAKEAGKYTVDVADKGYTLQIKFAGKEKTPEEPKEEVTIKAQLIYADGKTQTAEFKGTFEEATAEAYRYADLLAKEAGKYTVDVADKGYTLQIKFAGKEKTPEEPKEEVTIKAQLIYADGKTQTAEFKGTFEEATAEAYRYADLLAKEAGKYTVDVADKGYTLQIKFAGKEKTPEE
For B6, the QB10 Dab in assay [10] stood at 16.7 mg/mL. This molecule yielded a QB10 Fab in [11] of 21.1 mg/mL.

B7: Domain 3 (D3) of Peptostreptococcus magnus Protein L (protein)
chain: AQVPKEEVTIKANLIYADGKTQTAEFKGTFEEATAEAYRYADLLAKENGKYTVDVADKGYTLNIKFAGKEKTPEEC
Regarding B7, the Sample/ref. ratio in assay [12] and in assay [13] was 1 each time. Moreover, the Retained capacity after 96 cycles (%) is 31% in assay [3] and 28% in assay [14].

B8: Domain 2 (D2) of Protein L, variant with alanine in position 31 (protein)
chain: B7 chain with T34A, L43A, A45K, E47D, K50E
Regarding B8, the Sample/ref. ratio in [5] is 0.71. Moreover, the Retained capacity after 96 cycles (%) in assay [3] worked out at 22%.
